This assay has as its target peptide VWF73 (FRET substrate encompassing the ADAMTS13 recognition site of von Willebrand factor) (UniProt P04275). Description: cell-based or functional assay. The settings on record: scale: µL of normal human plasma equivalent per 200,000 cells.

Chain of peptide VWF73 (FRET substrate encompassing the ADAMTS13 recognition site of von Willebrand factor) (P04275 1596-1668 limits assumed): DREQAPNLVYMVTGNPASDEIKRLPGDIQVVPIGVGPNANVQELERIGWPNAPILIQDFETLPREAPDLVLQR

With “GPI-ADAMTS13 (AD5): first 745 amino acids of human ADAMTS13 fused to the DAF GPI anchor sequence (from UniProt Q76LX8 75-745) (enzyme)”, the VWF73 FRET assay, ADAMTS13 enzymatic activity (K562 cells) amounted to 10 and the VWF73 FRET assay, ADAMTS13 enzymatic activity (iPSC-derived erythroid cells) worked out at 10.

The values above are taken from patent publication US20220213462A1.
